From patent US20220227882A1 (TRUSTEES OF TUFTS COLLEGE, published 2022)

T1: Recombinant human ADAM15 (Sino Biological, 10517-H08H) (human, UniProt Q13444 18-696)
T1 sequence (looked up): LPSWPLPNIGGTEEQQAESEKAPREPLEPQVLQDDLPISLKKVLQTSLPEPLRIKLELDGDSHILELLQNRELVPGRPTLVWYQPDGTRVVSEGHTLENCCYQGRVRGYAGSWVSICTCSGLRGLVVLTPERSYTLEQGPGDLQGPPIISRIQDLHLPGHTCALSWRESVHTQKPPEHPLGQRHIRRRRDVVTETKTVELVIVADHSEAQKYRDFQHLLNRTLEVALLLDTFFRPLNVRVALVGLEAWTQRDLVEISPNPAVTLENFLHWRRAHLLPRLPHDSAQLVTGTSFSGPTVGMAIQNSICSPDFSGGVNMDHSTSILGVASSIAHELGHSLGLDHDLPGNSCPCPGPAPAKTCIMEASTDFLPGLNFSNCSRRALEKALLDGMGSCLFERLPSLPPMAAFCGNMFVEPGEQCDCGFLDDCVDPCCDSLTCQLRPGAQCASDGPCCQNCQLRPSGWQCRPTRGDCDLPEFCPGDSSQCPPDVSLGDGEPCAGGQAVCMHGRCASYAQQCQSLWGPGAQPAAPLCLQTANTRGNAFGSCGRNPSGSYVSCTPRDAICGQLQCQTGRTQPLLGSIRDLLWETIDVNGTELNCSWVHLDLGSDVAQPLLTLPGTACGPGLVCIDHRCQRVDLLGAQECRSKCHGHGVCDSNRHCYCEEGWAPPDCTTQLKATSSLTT

T2: Full-length human ADAM8 on cells (HEK293-ADAM8 stable or transfected cells); also endogenous ADAM8 of breast … (human, UniProt P78325 17-824)
T2 sequence: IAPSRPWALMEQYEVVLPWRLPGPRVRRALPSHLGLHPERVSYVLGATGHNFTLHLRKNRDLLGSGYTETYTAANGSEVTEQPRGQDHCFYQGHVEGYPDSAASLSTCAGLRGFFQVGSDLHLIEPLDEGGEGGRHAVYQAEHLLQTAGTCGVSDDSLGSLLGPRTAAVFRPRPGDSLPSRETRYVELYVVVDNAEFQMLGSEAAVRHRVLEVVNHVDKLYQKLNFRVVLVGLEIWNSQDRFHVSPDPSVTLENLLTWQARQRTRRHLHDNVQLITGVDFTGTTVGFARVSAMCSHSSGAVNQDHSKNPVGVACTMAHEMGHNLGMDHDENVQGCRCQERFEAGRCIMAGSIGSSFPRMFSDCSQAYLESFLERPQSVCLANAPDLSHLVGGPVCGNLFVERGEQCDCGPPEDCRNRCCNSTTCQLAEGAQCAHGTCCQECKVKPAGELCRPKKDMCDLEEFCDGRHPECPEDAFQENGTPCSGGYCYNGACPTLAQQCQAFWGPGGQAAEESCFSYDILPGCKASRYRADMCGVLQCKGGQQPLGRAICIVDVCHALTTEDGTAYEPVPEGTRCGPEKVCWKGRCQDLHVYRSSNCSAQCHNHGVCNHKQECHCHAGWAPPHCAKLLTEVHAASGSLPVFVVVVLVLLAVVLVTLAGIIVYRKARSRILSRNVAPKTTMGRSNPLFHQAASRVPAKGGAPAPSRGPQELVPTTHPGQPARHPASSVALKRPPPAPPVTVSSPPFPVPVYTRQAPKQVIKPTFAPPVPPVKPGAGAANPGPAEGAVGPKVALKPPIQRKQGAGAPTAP

T3: Recombinant human ADAM8 (rHuADAM8) ectodomain protein (aa 17-497), ACRO Biosystems AD8-H5223 (human, UniProt P78325 17-497)
T3 construct: Bought protein made in HEK293 cells; The protein clips off its own prodomain (aa 17-191); also called rhADAM8; immunogen
T3 sequence: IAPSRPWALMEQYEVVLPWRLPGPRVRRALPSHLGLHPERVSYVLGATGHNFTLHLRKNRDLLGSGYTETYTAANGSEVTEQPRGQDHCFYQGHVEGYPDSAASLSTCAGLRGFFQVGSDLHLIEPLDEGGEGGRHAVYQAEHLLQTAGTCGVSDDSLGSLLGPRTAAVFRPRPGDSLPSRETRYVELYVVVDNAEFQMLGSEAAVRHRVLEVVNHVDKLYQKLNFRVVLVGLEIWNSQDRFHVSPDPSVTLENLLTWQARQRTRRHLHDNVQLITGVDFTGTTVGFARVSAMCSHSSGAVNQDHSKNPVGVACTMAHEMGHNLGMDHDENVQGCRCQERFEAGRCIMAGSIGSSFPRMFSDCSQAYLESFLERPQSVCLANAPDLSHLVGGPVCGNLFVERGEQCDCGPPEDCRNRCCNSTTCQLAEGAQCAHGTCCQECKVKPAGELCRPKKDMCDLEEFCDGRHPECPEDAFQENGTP

B1: ADP13 (antibody, IgG1, V domains shown)
VH: EVQLQQSGPEMVKPGTSVKISCKASGYTFTDYYINWVKQSHGKSLEWIGDISPNIGGATYNPKFKGKAILTVDKSARTAYMELRSLTSEDSAVYCCTRGGSSYPYFYAMDYWGQGTSVTVSS
VL: DIVMSQSPSSLAVSVGEKVTMSCKSSQSLLYSSNQKKYLAWYQQKPGQSPKLLIYWASTRESGVPDRFTGSGSGTDFTLTISSVKAEDLAVYYCQQFYSYPYTFGGGTKLEINR
notes: also called mADP13; mouse ADP13
B2: ADP2 (antibody, V domains shown)
VH: EVKLVESGGGLVQPGGSLSLSCAASGFSFPDYYMSWVRQPPGKALEWLGFIRDSANGYTTEYIASVKGRFTFSRDNSQSILYLQMNALRAEDSATYYCARYSRYYGMDYWGQGTSVTVSS
VL: SIVMTQTPKILLVSAGDRVTITCKASQTVNYDVAWYQQKPGQSPKPVIYFASNRYTGVPDRFTGSGFGTDFTFTISTVQAEDLAVYFCQQDYSAPWTFGGGTKLEIK
notes: also called mADP2; mouse ADP2
B3: ADP3 (antibody, IgG1, V domains shown)
VH: EVKLEESGGGLVQPGGSMKLSCAASGFTFSDAWMDWVRQSPEKGLEWVAEIRGKVNNLATYYVESVKGRFTISRDDSKSSVYLQMNSLRAEDTGIYYCLGRYDATYAMDYWGQGTSVTVSS
VL: DVVMTQTPLSLPVSLGDQASISCRSSQSLVHSDGNTYLHWYLQKPGQSPKLLIYKLSNRFSGVPDRFSGSGSGTDFTLKISRVEAEDLGVYFCSQSTHVPWTFGGGTKLEIK

Key:
[1] = molecular target: T1, Recombinant human ADAM15 (Sino …); assay: ELISA, coated recombinant ADAM15
[2] = molecular target: T2, Full-length human ADAM8 on cells …; assay: cell-based or functional assay
[3] = molecular target: T3, Recombinant human ADAM8 (rHuADAM8) …; assay: Biacore SPR, rHuADAM8 as analyte
Method: For Biacore assays, each ADP was used as the ligand in a multiple cycle kinetics method performed on a Biacore™ T200 surface plasmon resonance system (GE Healthcare Life Sciences) machine. ADP proteins were captured using anti-mouse Fc IgG attached to a dextran matrix, and rHuADAM8 (Acro Biosystems, AD8-H5223) added as the analyte at concentrations ranging from 3.75 nM to 200 nM. HBS-EP+ (10 mM HEPES, 0.15 M NaCl, 3 mM EDTA, 0.05% Surfactant P20) running buffer was passed at a flow rate of 30 μl/min and antigen injected at 30 μl/min. The association and dissociation phases were carried out for 180 s and 600 s, respectively. Surface regeneration was performed for 30 s at 30 μl/min of Glycine pH 1.5. Values for association rate constant (kₐ), dissociation rate constant (kd) and equilibrium dissociation constant (KD) were calculated through the Biacore™ T200 Software.

| Binder | OD 450nm [1] [OD450nm] | binding result [1] | % inhibition of CD23 cleavage (MP activity), HEK293 cells co-expressing CD23 and ADAM8, antibody 20 µg/ml [2] [% inhibition] | % inhibition of transendothelial migration of MDA-MB-231 cells through HUVEC, antibody 20 µg/ml [2] [% inhibition] | Kd [3] [nM] |
| --- | --- | --- | --- | --- | --- |
| B1 | 0.09 | no binding (tested: 1 µg/ml) | 79.1 | 54.5 | 1.3 |
| B2 | 0.16 | – | 62.6 | 37.6 | 3.34 |
| B3 | 0.17 | no binding (tested: 1 µg/ml) | 79.9 | 44.5 | 18.3 |
